{"source": "patent US20140018288A1", "about": "“X-DING-CD4 Peptide” (priority 2012, published 2014)", "molecules": {"B1": {"name": "MADINGGGATLPQPLYQTSGVLTAGFAPYIGVGSGKGKLAFLNNDYSQFGTGTKNVHWAGSDSKLTSTELSTYASTKQAAWGKLIQVPSVATSVAIPFNKAGSNAVDLSVDQLCGVFSGRITTWNQ (protein, listed as Homo sapiens)", "chain": "MADINGGGATLPQPLYQTSGVLTAGFAPYIGVGSGKGKLAFLNNDYSQFGTGTKNVHWAGSDSKLTSTELSTYASTKQAAWGKLIQVPSVATSVAIPFNKAGSNAVDLSVDQLCGVFSGRITTWNQ"}}, "test_system": "HIV-1 LTR promoter", "assay": "Rapid Suppression Assay (RSA), PMA-induced HIV-1 LTR-driven luciferase in 1G5 cells", "format": "cell-based", "settings": "RSA; for IC50: PMA 5 ng/ml, read-out: IC50, HIV-1 LTR promoter inhibition", "description": "We applied the cell based Rapid Suppression Assay (RSA) for testing X-DING-CD4-induced inhibition of HIV-1 LTR promoter (Lesner et al., 2004; Lesner et al., 2005). Briefly, 1 G5 cells (obtained through the NIH AIDS Research and Reagent Program, Division of AIDS, NIAID, NIH) that are stably transfected with an inducible luciferase gene driven by HIV-1 LTR (Aguilar-Cordova et al., 1994) were washed in PBS, resuspended in hybridoma medium to concentration of 5×10^6cells/ml. For purpose of generating control titration curves, 100 μl aliquots of 1G5 cells were mixed with 100 μl cell culture medium either supplemented with various amount of rX-DING-CD4^pep (SEQ ID No: 1) or no rX-DING-CD4^pep, and incubated for three hours at 37° C. Subsequently, all cells were induced with phorbol 12-myristate 13-acetate (PMA) at a concentration of 5 ng/ml. Two control tubes containing 1G5 cells without rX-DING-CD4^pep treatment were resuspended in hybridoma medium with or without PMA. Three hours later cells were collected by centrifugation and lysed in the same tubes using Reporter Lysis buffer (Promega). The expression levels of luciferase protein in the lysates were determined according to the manufacturer's protocol. The X-DING-CD4^pep inhibition values were established based on the formula: [(LUC1-LUC0)×100/Z]−100; where LUC1 is the value obtained from cells induced by PMA and treated with a specific dilution of X-DING-CD4^pep; and LUC0 is the basal value obtained from the uninduced and untreated cells; Z is the absolute luciferase induction by PMA calculated as Z=LUCmax-LUCO3 where LUCmax is the value of 100% luciferase expression in PMA induced X-DING-CD4^pep untreated cells.\nOne aspect of the present invention is related to X-DING-CD4 peptide derivatives. Here we obtained 15 derivatives SED ID NOS: 1-15 by recombination or in vitro synthesis. We tested the biological activity of some these derivatives by rapid suppression assay (RSA). In XD-4M, the third amino acid glycine in the native X-DING-CD4 peptide was substituted with the polar amino acid glutamine. In XD-7, the two amino acids, cysteine and valine, replaced the three amino acids, glycine, serine and aspartic acid, in the native X-DING-CD4 peptide. In XD-12 and XD-12sh, the 69th amino acid glutamic acid in the native X-DING-CD4 peptide was methylated. In XD-9, the 69th amino acid glutamic acid in the native X-DING-CD4 peptide was substituted with the amino acid glutamine. The RSA procedure was similar to that described in Example 2. The inhibitory values are plotted in FIG. 5.\nWe performed the rapid suppression assay (RSA) which tests directly the inhibition of HIV-1 transcription (similar to the procedure described in Example 2), the MAGI assay which tests the inhibition of HIV-1 replication in a single cycle infection (similar to the procedure described in Example 2), and the HIV-1 infection inhibition assay in human PBLs.", "key": {"[1]": {"settings": "1G5 cells, listed as rX-DING-CD4"}}, "note": "Read-outs that look alike come from different tables or passages of the source.", "data": [{"molecule": "B1", "values": [{"measurement": "concentration achieving inhibition of 90% HIV-1 LTR transcription", "result": 115.1, "unit": "nM"}, {"measurement": "IC95, HIV-1 LTR promoter inhibition, mass concentration", "setting": "1G5 cells", "result": 1.52, "unit": "µg/mL"}, {"measurement": "IC95, inhibitory dose blocking 95% transcription events", "setting": "1G5 cells", "result": "about 115.1 nM"}, {"measurement": "IC50", "setting": "[1]", "result": 8.2, "unit": "nM"}, {"measurement": "IC50", "setting": "1G5 cells", "result": "~8.18", "unit": "nM"}, {"measurement": "IC95, HIV-1 LTR promoter inhibition, mass concentration", "setting": "[1]", "result": "(1.514 μg/ml)"}, {"measurement": "IC50, HIV-1 LTR promoter inhibition, mass concentration", "setting": "Table 1", "result": "(0.107 ug/ml)"}, {"measurement": "IC95, HIV-1 LTR promoter inhibition", "setting": "Table 1", "result": 0.116, "unit": "µM"}]}]}
